# Source: the supplement of paper PMC9233669
# This sample holds only a part of the variants without activity.
# Experiments:
# biotinyl-Trp-oxazolone = test: self-aminoacylation, catalytic enhancement (BWO) (fold over background); higher = more active; k-Seq, kA / k0A0; sequences stand for … in GGGAAUGGAUCCACAUCUACGAAUUC…UUCACUGCAGACUUGACGAAGCUG
# Summary of the method: (§1)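 Working in 50 μL HEPES/NaCl/KCl/MgCl2/CaCl2 buffer with 5% acetonitrile at pH 6.9–7.0, mutagenized RNA pools (0.43 μM; 21-nt variable region) were reacted with 2–1250 μM of each biotinyl-aminoacyl-oxazolone for 90 minutes at room temperature. Streptavidin capture followed, with quantification by triplicate qPCR and Illumina sequencing. Catalytic enhancement is reported as median kA over the uncatalyzed rate, the low-activity peak of a bimodal Gaussian fit to the data.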
# biotinyl-Met-oxazolone = test: self-aminoacylation, catalytic enhancement (BMO) (fold over background); higher = more active; k-Seq, kA / k0A0; sequences stand for … in GGGAAUGGAUCCACAUCUACGAAUUC…UUCACUGCAGACUUGACGAAGCUG
# Summary of the method: as §1
# biotinyl-Phe-oxazolone = test: self-aminoacylation, catalytic enhancement (BFO) (fold over background); higher = more active; k-Seq, kA / k0A0; sequences stand for … in GGGAAUGGAUCCACAUCUACGAAUUC…UUCACUGCAGACUUGACGAAGCUG
# Summary of the method: as §1
# biotinyl-Leu-oxazolone = test: self-aminoacylation, catalytic enhancement (BLO) (fold over background); higher = more active; k-Seq, kA / k0A0; sequences stand for … in GGGAAUGGAUCCACAUCUACGAAUUC…UUCACUGCAGACUUGACGAAGCUG
# Summary of the method: as §1
# biotinyl-Val-oxazolone = test: self-aminoacylation, catalytic enhancement (BVO) (fold over background); higher = more active; k-Seq, kA / k0A0; sequences stand for … in GGGAAUGGAUCCACAUCUACGAAUUC…UUCACUGCAGACUUGACGAAGCUG
# Summary of the method: as §1
# biotinyl-Ile-oxazolone = test: self-aminoacylation, catalytic enhancement (BIO) (fold over background); higher = more active; k-Seq, kA / k0A0; sequences stand for … in GGGAAUGGAUCCACAUCUACGAAUUC…UUCACUGCAGACUUGACGAAGCUG
# Summary of the method: as §1
sequence,measurement,setting,value
AAGUUUGCUUAUAGUCGCAAU [Fam3.1 aminoacylation ribozyme variant],self-aminoacylation,biotinyl-Trp-oxazolone,1.03
same,self-aminoacylation,biotinyl-Met-oxazolone,1.41
same,self-aminoacylation,biotinyl-Phe-oxazolone,1.74
same,self-aminoacylation,biotinyl-Leu-oxazolone,1.27
same,self-aminoacylation,biotinyl-Val-oxazolone,1.22
same,self-aminoacylation,biotinyl-Ile-oxazolone,1.1
AAGUUUGCUUAUUGUCGCAAG [Fam3.1 aminoacylation ribozyme variant],self-aminoacylation,biotinyl-Trp-oxazolone,0.97
same,self-aminoacylation,biotinyl-Met-oxazolone,0.641
same,self-aminoacylation,biotinyl-Phe-oxazolone,0.903
same,self-aminoacylation,biotinyl-Leu-oxazolone,0.686
same,self-aminoacylation,biotinyl-Val-oxazolone,0.713
same,self-aminoacylation,biotinyl-Ile-oxazolone,0.771
AAGUUUGGUAACAGUCGCAAG [Fam3.1 aminoacylation ribozyme variant],self-aminoacylation,biotinyl-Trp-oxazolone,0.693
same,self-aminoacylation,biotinyl-Met-oxazolone,0.994
same,self-aminoacylation,biotinyl-Phe-oxazolone,1.24
same,self-aminoacylation,biotinyl-Leu-oxazolone,0.857
same,self-aminoacylation,biotinyl-Val-oxazolone,0.987
same,self-aminoacylation,biotinyl-Ile-oxazolone,1.07
AAGUUUGGUAAUAGCCGCAAG [Fam3.1 aminoacylation ribozyme variant],self-aminoacylation,biotinyl-Trp-oxazolone,1.42
same,self-aminoacylation,biotinyl-Met-oxazolone,1.39
same,self-aminoacylation,biotinyl-Phe-oxazolone,1.19
same,self-aminoacylation,biotinyl-Leu-oxazolone,1.15
same,self-aminoacylation,biotinyl-Val-oxazolone,1.01
same,self-aminoacylation,biotinyl-Ile-oxazolone,1.27
AAGUUUGGUAAUAGUCGCAAU [Fam3.1 aminoacylation ribozyme variant],self-aminoacylation,biotinyl-Trp-oxazolone,2.14
same,self-aminoacylation,biotinyl-Met-oxazolone,1.65
same,self-aminoacylation,biotinyl-Phe-oxazolone,3.13
same,self-aminoacylation,biotinyl-Leu-oxazolone,1.8
same,self-aminoacylation,biotinyl-Val-oxazolone,1.62
same,self-aminoacylation,biotinyl-Ile-oxazolone,2.02
AAGUUUGGUAAUCGUCGCAAG [Fam3.1 aminoacylation ribozyme variant],self-aminoacylation,biotinyl-Trp-oxazolone,1.52
same,self-aminoacylation,biotinyl-Met-oxazolone,1.49
same,self-aminoacylation,biotinyl-Phe-oxazolone,1.07
same,self-aminoacylation,biotinyl-Leu-oxazolone,1.33
same,self-aminoacylation,biotinyl-Val-oxazolone,1.32
same,self-aminoacylation,biotinyl-Ile-oxazolone,1.39
AAGUUUGGUAUUAGUCGCAAG [Fam3.1 aminoacylation ribozyme variant],self-aminoacylation,biotinyl-Trp-oxazolone,1.74
same,self-aminoacylation,biotinyl-Met-oxazolone,1.51
same,self-aminoacylation,biotinyl-Phe-oxazolone,2.44
same,self-aminoacylation,biotinyl-Leu-oxazolone,1.5
same,self-aminoacylation,biotinyl-Val-oxazolone,1.47
same,self-aminoacylation,biotinyl-Ile-oxazolone,1.65
AAGUUUGUUAACAGUCGCAAG [Fam3.1 aminoacylation ribozyme variant],self-aminoacylation,biotinyl-Trp-oxazolone,0.988
same,self-aminoacylation,biotinyl-Met-oxazolone,0.806
same,self-aminoacylation,biotinyl-Phe-oxazolone,1.11
same,self-aminoacylation,biotinyl-Leu-oxazolone,1.03
same,self-aminoacylation,biotinyl-Val-oxazolone,0.996
same,self-aminoacylation,biotinyl-Ile-oxazolone,1.09
AAGUUUGUUAAUAGACGCAAG [Fam3.1 aminoacylation ribozyme variant],self-aminoacylation,biotinyl-Trp-oxazolone,0.609
same,self-aminoacylation,biotinyl-Met-oxazolone,0.587
same,self-aminoacylation,biotinyl-Phe-oxazolone,0.803
same,self-aminoacylation,biotinyl-Leu-oxazolone,0.399
same,self-aminoacylation,biotinyl-Val-oxazolone,0.536
same,self-aminoacylation,biotinyl-Ile-oxazolone,0.583
AAGUUUGUUAAUAUUCGCAAG [Fam3.1 aminoacylation ribozyme variant],self-aminoacylation,biotinyl-Trp-oxazolone,1.41
same,self-aminoacylation,biotinyl-Met-oxazolone,1.15
same,self-aminoacylation,biotinyl-Phe-oxazolone,1.17
same,self-aminoacylation,biotinyl-Leu-oxazolone,1.45
same,self-aminoacylation,biotinyl-Val-oxazolone,1.43
same,self-aminoacylation,biotinyl-Ile-oxazolone,1.55
AAGUUUGUUAAUCGUCGCAAG [Fam3.1 aminoacylation ribozyme variant],self-aminoacylation,biotinyl-Trp-oxazolone,1.04
same,self-aminoacylation,biotinyl-Met-oxazolone,1.35
same,self-aminoacylation,biotinyl-Phe-oxazolone,1.05
same,self-aminoacylation,biotinyl-Leu-oxazolone,1.15
same,self-aminoacylation,biotinyl-Val-oxazolone,1.22
same,self-aminoacylation,biotinyl-Ile-oxazolone,1.21
AAGUUUUAUAAUAGUCGCAAG [Fam3.1 aminoacylation ribozyme variant],self-aminoacylation,biotinyl-Trp-oxazolone,1.99
same,self-aminoacylation,biotinyl-Met-oxazolone,1.77
same,self-aminoacylation,biotinyl-Phe-oxazolone,3.02
same,self-aminoacylation,biotinyl-Leu-oxazolone,1.61
same,self-aminoacylation,biotinyl-Val-oxazolone,1.64
same,self-aminoacylation,biotinyl-Ile-oxazolone,1.72
AAGUUUUCUAAUAGUCACAAG [Fam3.1 aminoacylation ribozyme variant],self-aminoacylation,biotinyl-Trp-oxazolone,1.87
same,self-aminoacylation,biotinyl-Met-oxazolone,1.25
same,self-aminoacylation,biotinyl-Phe-oxazolone,2.39
same,self-aminoacylation,biotinyl-Leu-oxazolone,1.4
same,self-aminoacylation,biotinyl-Val-oxazolone,1.64
same,self-aminoacylation,biotinyl-Ile-oxazolone,1.64
AAGUUUUCUAAUAGUCCCAAG [Fam3.1 aminoacylation ribozyme variant],self-aminoacylation,biotinyl-Trp-oxazolone,1.45
same,self-aminoacylation,biotinyl-Met-oxazolone,0.891
same,self-aminoacylation,biotinyl-Phe-oxazolone,2.7
same,self-aminoacylation,biotinyl-Leu-oxazolone,0.929
same,self-aminoacylation,biotinyl-Val-oxazolone,1.08
same,self-aminoacylation,biotinyl-Ile-oxazolone,1.02
AAGUUUUCUAAUAGUGGCAAG [Fam3.1 aminoacylation ribozyme variant],self-aminoacylation,biotinyl-Trp-oxazolone,0.658
same,self-aminoacylation,biotinyl-Met-oxazolone,0.758
same,self-aminoacylation,biotinyl-Phe-oxazolone,0.75
same,self-aminoacylation,biotinyl-Leu-oxazolone,0.804
same,self-aminoacylation,biotinyl-Val-oxazolone,0.662
same,self-aminoacylation,biotinyl-Ile-oxazolone,0.856
AAGUUUUCUAAUCGUCGCAAG [Fam3.1 aminoacylation ribozyme variant],self-aminoacylation,biotinyl-Trp-oxazolone,1.65
same,self-aminoacylation,biotinyl-Met-oxazolone,1.68
same,self-aminoacylation,biotinyl-Phe-oxazolone,2.56
same,self-aminoacylation,biotinyl-Leu-oxazolone,1.79
same,self-aminoacylation,biotinyl-Val-oxazolone,1.69
same,self-aminoacylation,biotinyl-Ile-oxazolone,1.75
AAUAACCUGGUCAUCGAGUGA [Fam2.1 aminoacylation ribozyme variant],self-aminoacylation,biotinyl-Trp-oxazolone,7.36
same,self-aminoacylation,biotinyl-Met-oxazolone,5.9
same,self-aminoacylation,biotinyl-Phe-oxazolone,9.51
same,self-aminoacylation,biotinyl-Leu-oxazolone,5.79
same,self-aminoacylation,biotinyl-Val-oxazolone,3.55
same,self-aminoacylation,biotinyl-Ile-oxazolone,3.67
AAUACCAUGGUCAUCGAGUGA [Fam2.1 aminoacylation ribozyme variant],self-aminoacylation,biotinyl-Trp-oxazolone,7.7
same,self-aminoacylation,biotinyl-Met-oxazolone,6.12
same,self-aminoacylation,biotinyl-Phe-oxazolone,16.2
same,self-aminoacylation,biotinyl-Leu-oxazolone,6.22
same,self-aminoacylation,biotinyl-Val-oxazolone,2.89
same,self-aminoacylation,biotinyl-Ile-oxazolone,3.19
AAUACCCUGAUCAUCGAGUGA [Fam2.1 aminoacylation ribozyme variant],self-aminoacylation,biotinyl-Trp-oxazolone,7.59
same,self-aminoacylation,biotinyl-Met-oxazolone,6.32
same,self-aminoacylation,biotinyl-Phe-oxazolone,18.6
same,self-aminoacylation,biotinyl-Leu-oxazolone,6.22
same,self-aminoacylation,biotinyl-Val-oxazolone,3.21
same,self-aminoacylation,biotinyl-Ile-oxazolone,2.79
AAUACCCUGGUCAUCGGGUGA [Fam2.1 aminoacylation ribozyme variant],self-aminoacylation,biotinyl-Trp-oxazolone,15.9
same,self-aminoacylation,biotinyl-Met-oxazolone,12.1
same,self-aminoacylation,biotinyl-Phe-oxazolone,77.3
same,self-aminoacylation,biotinyl-Leu-oxazolone,11.8
same,self-aminoacylation,biotinyl-Val-oxazolone,7.46
same,self-aminoacylation,biotinyl-Ile-oxazolone,7.82
AAUACCCUGGUUAUCGAGUGA [Fam2.1 aminoacylation ribozyme variant],self-aminoacylation,biotinyl-Trp-oxazolone,9.84
same,self-aminoacylation,biotinyl-Met-oxazolone,6.97
same,self-aminoacylation,biotinyl-Phe-oxazolone,30.8
same,self-aminoacylation,biotinyl-Leu-oxazolone,7.89
same,self-aminoacylation,biotinyl-Val-oxazolone,3.59
same,self-aminoacylation,biotinyl-Ile-oxazolone,3.37
AAUACCCUUGUCAUCGAGUGA [Fam2.1 aminoacylation ribozyme variant],self-aminoacylation,biotinyl-Trp-oxazolone,5.93
same,self-aminoacylation,biotinyl-Met-oxazolone,4.58
same,self-aminoacylation,biotinyl-Phe-oxazolone,5.23
same,self-aminoacylation,biotinyl-Leu-oxazolone,4.72
same,self-aminoacylation,biotinyl-Val-oxazolone,2.43
same,self-aminoacylation,biotinyl-Ile-oxazolone,2.42
AAUAUCCUGGUCAUCGAGUGA [Fam2.1 aminoacylation ribozyme variant],self-aminoacylation,biotinyl-Trp-oxazolone,10.1
same,self-aminoacylation,biotinyl-Met-oxazolone,8.66
same,self-aminoacylation,biotinyl-Phe-oxazolone,26.2
same,self-aminoacylation,biotinyl-Leu-oxazolone,8.92
same,self-aminoacylation,biotinyl-Val-oxazolone,4.34
same,self-aminoacylation,biotinyl-Ile-oxazolone,4.6
AAUAUUGCUAAUAGUCGCAAG [Fam3.1 aminoacylation ribozyme variant],self-aminoacylation,biotinyl-Trp-oxazolone,1.95
same,self-aminoacylation,biotinyl-Met-oxazolone,1.68
same,self-aminoacylation,biotinyl-Phe-oxazolone,2.4
same,self-aminoacylation,biotinyl-Leu-oxazolone,1.7
same,self-aminoacylation,biotinyl-Val-oxazolone,1.76
same,self-aminoacylation,biotinyl-Ile-oxazolone,1.86
AAUCACCAAGGUCAUCGGGUG [Fam2.2 aminoacylation ribozyme variant],self-aminoacylation,biotinyl-Trp-oxazolone,8.66
same,self-aminoacylation,biotinyl-Met-oxazolone,6.79
same,self-aminoacylation,biotinyl-Phe-oxazolone,54.3
same,self-aminoacylation,biotinyl-Leu-oxazolone,10.7
same,self-aminoacylation,biotinyl-Val-oxazolone,5.67
same,self-aminoacylation,biotinyl-Ile-oxazolone,4.92
AAUCACCUACGUCAUCGGGUG [Fam2.2 aminoacylation ribozyme variant],self-aminoacylation,biotinyl-Trp-oxazolone,7.27
same,self-aminoacylation,biotinyl-Met-oxazolone,6.56
same,self-aminoacylation,biotinyl-Phe-oxazolone,53
same,self-aminoacylation,biotinyl-Leu-oxazolone,6.01
same,self-aminoacylation,biotinyl-Val-oxazolone,3.79
same,self-aminoacylation,biotinyl-Ile-oxazolone,4.41
